Patent US20240116985A1 (published 2024)
Values belong to the binder of their own block, whether it stands above or below them. Starred links: 1 amine or outer side, 2 acyl side, 3 side chain; linkers in the order of their positions; H or OH if unused. Positions of bridges follow the written chain, without caps; N, C: chain ends. Non-standard residues stand in square brackets, D forms with d. Primed or numbered codes have the meaning given here. *: point of attachment. PyrS2″ = (S)-3-amino-1-((pent-4-en-1-yloxy)carbonyl)pyrrolidine-3-carboxylic acid (stapling residue), C=CCCCOC(=O)N1CC[C@@](N[*:1])(C(=O)[*:2])C1; B5(17) = 2,2-bis(4-pentenyl)glycine = 2-amino-2-(pent-4-en-1-yl)hept-6-enoic acid, stitching residue, C=CCCCC(CCCC=C)(N[*:1])C(=O)[*:2]; B5(4) = 2,2-bis(4-pentenyl)glycine = 2-amino-2-(pent-4-en-1-yl)hept-6-enoic acid (stitching residue), C=CCCCC(CCCC=C)(N[*:1])C(=O)[*:2]; TfeGA = (S)-2-amino-3-((carboxymethyl)(2,2,2-trifluoroethyl)amino)propanoic acid, O=C([C@H](CN(CC(=O)[*:3])CC(F)(F)F)N[*:1])[*:2]; PyrS2 = (S)-3-amino-1-((pent-4-en-1-yloxy)carbonyl)pyrrolidine-3-carboxylic acid, C=CCCCOC(=O)N1CC[C@@](N[*:1])(C(=O)[*:2])C1; B5(22) = 2-amino-2-(pent-4-en-1-yl)hept-6-enoic acid (two alkene side chains), C=CCCCC(CCCC=C)(N[*:1])C(=O)[*:2]; B5(3) = 2,2-bis(4-pentenyl)glycine (stitching residue), C=CCCCC(CCCC=C)(N[*:1])C(=O)[*:2]; 2F3MeF = Cc1cccc(C[C@H](N[*:1])C(=O)[*:2])c1F; Phe(3-Cl) = N[C@@H](Cc1cccc(Cl)c1)C(=O)O; Phe(2-Br) = N[C@@H](Cc1ccccc1Br)C(=O)O; Phe(2-CN) = N#Cc1ccccc1C[C@H](N)C(=O)O; Phe(2-Cl) = N[C@@H](Cc1ccccc1Cl)C(=O)O; Bta = N[C@@H](Cc1csc2ccccc12)C(=O)O; αAllylPro = C=CC[C@@]1(C(=O)O)CCCN1; tBuAla = CC(C)(C)C[C@H](N)C(=O)O; 3Thi = N[C@@H](Cc1ccsc1)C(=O)O; S8 = C=CCCCCCC[C@](C)(N)C(=O)O; Thr(ol) = C[C@@H](O)[C@H](N)CO; hLeu = CC(C)CC[C@H](N)C(=O)O; Alaol = C[C@@H](CO)N*

Columns and labels:
B-cat-Halo = target: T1, B-cat-Halo (UniProt P35222 1-781); experiment: cell-based or functional assay
T1 sequence (looked up): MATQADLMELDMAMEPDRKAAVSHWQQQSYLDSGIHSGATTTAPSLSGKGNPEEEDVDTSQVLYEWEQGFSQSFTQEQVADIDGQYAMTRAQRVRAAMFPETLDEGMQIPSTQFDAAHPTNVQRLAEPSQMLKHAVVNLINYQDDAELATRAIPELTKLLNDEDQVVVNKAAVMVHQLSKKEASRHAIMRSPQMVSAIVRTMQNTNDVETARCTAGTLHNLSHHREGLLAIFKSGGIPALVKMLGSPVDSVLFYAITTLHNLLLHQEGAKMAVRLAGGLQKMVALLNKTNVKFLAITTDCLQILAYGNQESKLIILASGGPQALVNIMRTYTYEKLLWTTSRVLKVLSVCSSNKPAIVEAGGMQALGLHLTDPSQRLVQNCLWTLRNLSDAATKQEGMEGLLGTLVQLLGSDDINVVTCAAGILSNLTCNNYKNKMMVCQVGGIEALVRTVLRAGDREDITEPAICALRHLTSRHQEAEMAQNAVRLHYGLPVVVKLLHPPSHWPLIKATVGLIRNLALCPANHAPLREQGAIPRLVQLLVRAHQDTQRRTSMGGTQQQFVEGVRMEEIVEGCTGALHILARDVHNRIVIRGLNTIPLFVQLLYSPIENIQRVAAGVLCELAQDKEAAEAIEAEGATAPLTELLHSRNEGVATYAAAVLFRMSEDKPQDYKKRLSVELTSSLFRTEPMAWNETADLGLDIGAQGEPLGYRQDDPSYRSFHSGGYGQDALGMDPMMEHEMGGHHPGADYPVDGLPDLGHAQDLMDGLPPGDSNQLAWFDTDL

[1] = target: T2, beta-catenin in DLD1 TCF/LEF reporter cells (UniProt P35222 1-781); experiment: cell-based or functional assay
T2 sequence (looked up): T1 sequence (looked up)

[2] = target: T3, B-cat-Halo (beta-catenin HaloTag NanoBRET construct expressed in HEK293 cells) (UniProt P35222 1-781); experiment: cell-based or functional assay
T3 sequence (looked up): T1 sequence (looked up)

[3] = target: T4, B-cat-Halo (beta-catenin HaloTag NanoBRET construct expressed in HEK293 cells) (UniProt P35222 1-781, HaloTag NanoBRET 618 Ligand bound to the HaloTag); experiment: cell-based or functional assay
T4 sequence (looked up): T1 sequence (looked up)

[4] = target: T5, B-cat-Halo (beta-catenin HaloTag fusion expressed in HEK293 cells) (UniProt P35222 1-781); experiment: cell-based or functional assay
T5 sequence (looked up): T1 sequence (looked up)

[5] = target: T6, full-length beta-Catenin (Uniprot ID P35222) (Homo sapiens (Human), UniProt P35222 1-781); experiment: fluorescence polarization competition; full-length beta-catenin with 5FAM-labeled TCF4 residues 10-53 probe as competitor
T6 construct: also called bCat; B-Catenin
T6 sequence: T1 sequence (looked up)
Method: The plate was incubated protected from light for 60 minutes at 20° C. prior to read. Reads were performed on a CLARIOstar plate reader (BMG Labtech) in duplicate, and data were fitted to a 1:1 binding model with hill slope using an in-house script. All provided concentrations are final concentrations.

- NanoBRET Abs IC50 (B-cat-Halo): 17.7 µM
- DLD1 reporter assay Abs IC50 [1]: 13.9 µM
Binder: Ac-[αAllylPro]D[tBuAla][B5(4)]DDAAFT[PyrS2″][Phe(2-Cl)][Bta]S-NHEt (staple 1-4, 4-11) [I-1244]

- NanoBRET Abs IC50 [2]: 15.6 µM
Binder: Ac-[αAllylPro]D[hLeu][B5(4)]DDAAFN[S8]F[Bta]Q-NH2 (staple 1-4, 4-11; not fully specified) [I-548]

- NanoBRET Abs IC50 (B-cat-Halo): > 20 µM
- DLD1 reporter assay Abs IC50 [1]: 4.8 µM
Binder: Ac-[αAllylPro]D[tBuAla][B5(4)]D[TfeGA]AAFT[PyrS2″][Phe(2-Cl)][Bta]-Alaol (staple 1-4, 4-11) [I-1242]

- NanoBRET Abs IC50 [2]: 3.5 µM
Binder: Ac-[αAllylPro]D[hLeu][B5(4)]DEAAFQ[S8]F[Bta]Q-NH2 (staple 1-4, 4-11) [I-545]

- NanoBRET Abs IC50 [3]: 19.2 µM
Binder: Ac-[αAllylPro]D[tBuAla][B5(22)]D[TfeGA]AAFN[S8][2F3MeF][Bta]Q-NH2 (staple 1-4, 4-11) [I-934]

- NanoBRET Abs IC50 (B-cat-Halo): 15.7 µM
- DLD1 reporter assay Abs IC50 [1]: 3.8 µM
Binder: Ac-[αAllylPro]D[tBuAla][B5(4)]D[TfeGA]AAFT[PyrS2″][Phe(2-Cl)][Bta][Thr(ol)] (staple 1-4, 4-11) [I-1241]

- NanoBRET Abs IC50 [4]: 10 µM
Binder: Ac-[αAllylPro]D[tBuAla][B5(3)]DDAAFL[PyrS2″][Phe(2-CN)][Bta]Q-NH2 (staple 1-4, 4-11) [Ac-PL3-Asp-Npg-B5-Asp-Asp-Ala-Ala-Phe-Leu-PyrS2-2CNF-BztA-Gln-NH2]

- NanoBRET Abs IC50 [3]: 22.2 µM
Binder: Ac-[αAllylPro]D[tBuAla][B5(22)]DDAAFN[PyrS2][3Thi][Bta]QK(PropynPEG2)-NH2 (staple 1-4, 4-11) [I-936]

- NanoBRET Abs IC50 [3]: 25.1 µM
Binder: Ac-[αAllylPro]D[tBuAla][B5(22)]DDAAFN[PyrS2][3Thi][Bta]QK-NH2 (staple 1-4, 4-11) [I-939]

- NanoBRET Abs IC50 [2]: 12.1 µM
Binder: Ac-[αAllylPro]D[tBuAla][B5(4)]DDAAFN[S8]F[Bta]Q-NH2 (staple 1-4, 4-11) [I-546]

- NanoBRET Abs IC50 [3]: 11.4 µM
Binder: Ac-[αAllylPro]D[tBuAla][B5(22)]D[TfeGA]AAFN[S8][Phe(2-Br)][Bta]Q-NH2 (staple 1-4, 4-11) [I-932]

- NanoBRET Abs IC50 (B-cat-Halo): 11.5 µM
- DLD1 reporter assay Abs IC50 [1]: 4.9 µM
Binder: Ac-[αAllylPro]D[tBuAla][B5(4)]D[TfeGA]AAFT[PyrS2″][Phe(2-Cl)][Bta]Q-NHEt (staple 1-4, 4-11) [I-1240]

- NanoBRET Abs IC50 [3]: 22.2 µM
Binder: Ac-[αAllylPro]D[tBuAla][B5(22)]D[TfeGA]AAFN[S8][Phe(3-Cl)][Bta]Q-NH2 (staple 1-4, 4-11) [I-933]

- IC50 [5]: 0.03 µM
- NanoBRET Abs IC50 [2]: 21.4 µM
B1: I-550 (peptide)
peptide: XDIXDDAAFNXFXQ
modifications: not fully specified; N-terminal Ac; PL3 at 1; B5 at 4; S8 at 11; 2OMeF at 12; BztA at 13; C-terminal NH2; staples PL3(1)-B5(4) and B5(4)-S8(11) by olefin metathesis

- IC50 [5]: 0.035 µM
- NanoBRET Abs IC50 [2]: 16.9 µM
Binder: Ac-[αAllylPro]DI[B5(17)]DEAAFN[S8]F[Bta]Q-NH2 (staple 1-4, 4-11) [I-557]
